Literature values in patent US12453725B2, “Treatment of inflammatory disease” (Celleron Therapeutics Limited, priority 2019, dated 2025).

Key:
[1] = human, in vivo; cited from earlier work
[2] = human, in vivo, cited from earlier work
[3] = in vivo; cited from earlier work

Substance | abnormal liver tests [1] | diarrhoea or colitis [1] | disorders of hormone-producing glands [1] | immune-related colitis, patients [1] [%] | kidney inflammation [1] | lung inflammation [1] | rash [1] | grade 3/4 diarrhoea, patients [2] | colitis, listed frequency of GI side effect [3] | incidence of grade 3/4 colitis ([2]; 5 mg/kg) [%] | enterocolitis (grade 3 or 4 symptoms and/or biopsy proven) [2] [%]
nivolumab: human monoclonal antibody that blocks the interaction between PD-1 and its ligands, PD-L1 and PD-L2; IgG4 kappa immunoglobulin | clinical trials, between 7 patients in 100 had abnormal liver | nivolumab clinical trials, 13 patients in 100 developed | trials, 10 patients in 100 developed disorders of hormone- | 13 | nivolumab clinical trials, 3 patients in 100 developed kidney | clinical trials, 3 patients in 100 developed lung | between 26 patients in 100 developed rash. Signs or | 1%-2% | – | – | –
pembrolizumab: humanized IgG4 monoclonal antibody that binds the programmed cell death-1 receptor | – | – | – | – | – | – | – | 1%-2% | common | – | –
ipilimumab: approved checkpoint inhibitor monoclonal antibody targeting CTLA-4 | – | – | – | – | – | – | – | 10% | – | 13 | 21
